{"source": "the RNAGym collection of RNA variant scans (doi:10.7554/elife.80360)", "parents": {"B1": {"name": "Hammerhead Ribozyme (parent)", "chain": "ACCGGAUGUGCUUUCCGGUCUGAUGAGUCCGUGAGGACGAAACAG"}}}
{"variants_of": "B1", "assay": "self-cleavage, relative activity (ratio to wild type); higher = more cleavage; co-transcriptional"}
{"variant": "ACCGGAUGUGCUGUCCGGUCUGAUGAGUCCGUGAGGAAGAAACAG", "note": "[U13G C38A]", "self-cleavage": 0.434}
{"variant": "ACCGGAUGUGCUUUCCGGUCUGAUGAGUCCCUGAGGAGGAAACAG", "note": "[G31C C38G]", "self-cleavage": 0.488}
{"variant": "ACCGGAUGUGCUUUCCGGUCUGAUGUGUCUGUGAGGACGAAACAG", "note": "[A26U C30U]", "self-cleavage": 0.703}
{"variant": "ACCGGAUGUGCUUUCCGGUCUGAUGAGUACGUGAGGACGAGACAG", "note": "[C29A A41G]", "self-cleavage": 0.339}
{"variant": "UCCGGAUGUGCUUUCCGGUCUGAUGAGUCCGUGAGGAGGAAACAG", "note": "[A1U C38G]", "self-cleavage": 0.33}
{"variant": "ACCGGAUGUGCUUUACGGUCUGAUGAGUCCGUGAGGAAGAAACAG", "note": "[C15A C38A]", "self-cleavage": 0.501}
{"variant": "ACCGGAUGUGCUUUCCGGUCUGAUGAGACCGUGAAGACGAAACAG", "note": "[U28A G35A]", "self-cleavage": 0.405}
{"variant": "ACCGGAUUUGAUUUCCGGUCUGAUGAGUCCGUGAGGACGAAACAG", "note": "[G8U C11A]", "self-cleavage": 1.11}
{"variant": "ACCGGAUGAGCUUUCCGGUCUGAUGAGUCCGCGAGGACGAAACAG", "note": "[U9A U32C]", "self-cleavage": 0.953}
{"variant": "ACUGGAUGUGCUUUCCGGUCUGAUGGGUCCGUGAGGACGAAACAG", "note": "[C3U A26G]", "self-cleavage": 0.366}
{"variant": "ACCGGAUGUGCUUUCCGGUCUUAUGAGUCCGUGAGGAAGAAACAG", "note": "[G22U C38A]", "self-cleavage": 0.305}
{"variant": "ACCGGAUGUGCUUUCCGGUUUGAUGAGUCCGUGAGGACGAUACAG", "note": "[C20U A41U]", "self-cleavage": 0.37}
{"variant": "ACGGGAUGUGCUUUCCGGUCUGAUGAGUCCAUGAGGACGAAACAG", "note": "[C3G G31A]", "self-cleavage": 0.636}
{"variant": "ACCGGAUUUGCAUUCCGGUCUGAUGAGUCCGUGAGGACGAAACAG", "note": "[G8U U12A]", "self-cleavage": 0.842}
{"variant": "ACCGGAUGUGCUUUCCGGUCCGAUGAGUCCGUGAGGACAAAACAG", "note": "[U21C G39A]", "self-cleavage": 0.304}
{"variant": "ACCGGAUGUGCUUUCCGGUCUGAUGAGUCAGUAAGGACGAAACAG", "note": "[C30A G33A]", "self-cleavage": 1.21}
{"variant": "ACCGGAUGUCCUUUCCGGUCUGAUGAGUCCGUGAAGACGAAACAG", "note": "[G10C G35A]", "self-cleavage": 0.848}
{"variant": "ACCGGAUGUGCUUUCCGGUUUGAGGAGUCCGUGAGGACGAAACAG", "note": "[C20U U24G]", "self-cleavage": 0.714}
{"variant": "ACCGGAUGUGCUCUCCGGUCUGAUGAGUCCAUGAGGACGAAACAG", "note": "[U13C G31A]", "self-cleavage": 1.04}
{"variant": "ACCGGAUGUGCUUUGCGGUCUAAUGAGUCCGUGAGGACGAAACAG", "note": "[C15G G22A]", "self-cleavage": 0.376}
{"variant": "ACCGGAUCUGCUUUCCGGUCUGAUGAGUGCGUGAGGACGAAACAG", "note": "[G8C C29G]", "self-cleavage": 0.571}
{"variant": "ACCGGAUGUGCUUUCAGAUCUGAUGAGUCCGUGAGGACGAAACAG", "note": "[C16A G18A]", "self-cleavage": 0.351}
{"variant": "ACCGGAUGUGCUUUCCGGUCCAAUGAGUCCGUGAGGACGAAACAG", "note": "[U21C G22A]", "self-cleavage": 0.335}
{"variant": "ACCGGAUGUGCUUUCCGGUCUUAUGAGUACGUGAGGACGAAACAG", "note": "[G22U C29A]", "self-cleavage": 0.299}
{"variant": "ACCGGAUGUGCUUUCCGGUCUGACGAGUCCGUGAGGAUGAAACAG", "note": "[U24C C38U]", "self-cleavage": 0.901}
{"variant": "UCCGGAUGUGCUUUCCGGUCUGAUGAGUCCGUGACGACGAAACAG", "note": "[A1U G35C]", "self-cleavage": 0.47}
{"variant": "ACCGCAUGUGCUUUCCUGUCUGAUGAGUCCGUGAGGACGAAACAG", "note": "[G5C G17U]", "self-cleavage": 0.381}
{"variant": "ACCGGAUGUGCUUUCCGGUCUGAUGAGUCCGUCAGGACGAAACCG", "note": "[G33C A44C]", "self-cleavage": 0.533}
{"variant": "ACCGGAUGUGCUUUCCGGUCUGAUGAGUCCGUGAGAACGAAAGAG", "note": "[G36A C43G]", "self-cleavage": 0.274}
{"variant": "ACCGGAUGUGAUUUCCGGUCUGAUGAGUCCGUGAGGAAGAAACAG", "note": "[C11A C38A]", "self-cleavage": 0.892}
{"variant": "ACCGGAUGUGCUUUCCGGUCUGAUGAAUCCGAGAGGACGAAACAG", "note": "[G27A U32A]", "self-cleavage": 0.736}
{"variant": "ACCGGAUGUGCGUUCCGGUCCGAUGAGUCCGUGAGGACGAAACAG", "note": "[U12G U21C]", "self-cleavage": 0.807}
{"variant": "ACCGGAUGGGAUUUCCGGUCUGAUGAGUCCGUGAGGACGAAACAG", "note": "[U9G C11A]", "self-cleavage": 1.47}
{"variant": "ACCGGAUGUACUUUCCGGUCUGAUGAGUCCGUGAGGUCGAAACAG", "note": "[G10A A37U]", "self-cleavage": 0.921}
{"variant": "ACCGGAUUUGCUUUCCGGUCUGAUGAGUCCGUGAGGACGAAACGG", "note": "[G8U A44G]", "self-cleavage": 1.37}
{"variant": "ACCGGAUGUGCUUUCCGGUCUGAUGAGUCCGUGAGGACGAAGCGG", "note": "[A42G A44G]", "self-cleavage": 0.544}
{"variant": "ACCGGAUGUGCUUUCGGGUAUGAUGAGUCCGUGAGGACGAAACAG", "note": "[C16G C20A]", "self-cleavage": 0.336}
{"variant": "CCCGGAUAUGCUUUCCGGUCUGAUGAGUCCGUGAGGACGAAACAG", "note": "[A1C G8A]", "self-cleavage": 0.409}
{"variant": "ACCGGAUGUGCUUACCGGUCUGAUGAGUCGGUGAGGACGAAACAG", "note": "[U14A C30G]", "self-cleavage": 0.624}
{"variant": "ACCGUAUGUGCUUUCCGGUCUGAUGAGUCCGUGAGGACGAAUCAG", "note": "[G5U A42U]", "self-cleavage": 0.323}
{"variant": "ACCGGAUGUGCUUUCCGGUCUGAUGAGUCCGUCAGGGCGAAACAG", "note": "[G33C A37G]", "self-cleavage": 0.619}
{"variant": "ACCGGAUGUGCUUUCCGGUCUGAUGACUCCGUGAGGAAGAAACAG", "note": "[G27C C38A]", "self-cleavage": 0.863}
{"variant": "ACCGGAUGUGCUUUCCGGGCUGAUGAGUACGUGAGGACGAAACAG", "note": "[U19G C29A]", "self-cleavage": 0.257}
{"variant": "CGCGGAUGUGCUUUCCGGUCUGAUGAGUCCGUGAGGACGAAACAG", "note": "[A1C C2G]", "self-cleavage": 0.524}
{"variant": "ACCGGAUGUGCUUUACGGUCUGAUGCGUCCGUGAGGACGAAACAG", "note": "[C15A A26C]", "self-cleavage": 0.437}
{"variant": "ACCGGAUGUGCUUUCCAGUCUGAUGAGUCCGUGCGGACGAAACAG", "note": "[G17A A34C]", "self-cleavage": 0.562}
{"variant": "ACCGGAUGUGCUUUCCGGUCUCACGAGUCCGUGAGGACGAAACAG", "note": "[G22C U24C]", "self-cleavage": 0.348}
{"variant": "ACCGGAUGUGCUUUCCGGGGUGAUGAGUCCGUGAGGACGAAACAG", "note": "[U19G C20G]", "self-cleavage": 0.307}
{"variant": "ACCGGAUGUGCUGUCCGGUCUGAUGUGUCCGUGAGGACGAAACAG", "note": "[U13G A26U]", "self-cleavage": 0.678}
{"variant": "ACCGGAUGUGCUUUCCGGACUGAUGAGUCCGAGAGGACGAAACAG", "note": "[U19A U32A]", "self-cleavage": 0.321}
{"variant": "GCCGGGUGUGCUUUCCGGUCUGAUGAGUCCGUGAGGACGAAACAG", "note": "[A1G A6G]", "self-cleavage": 1.5}
{"variant": "UCCGGAUGUGCUUUCCGGUCUGAUGACUCCGUGAGGACGAAACAG", "note": "[A1U G27C]", "self-cleavage": 0.317}
{"variant": "ACGGGAUGUGCUUGCCGGUCUGAUGAGUCCGUGAGGACGAAACAG", "note": "[C3G U14G]", "self-cleavage": 0.557}
{"variant": "ACCGGAUGUGCUUUCCGGUCUGAUGAGUCCGUGGGCACGAAACAG", "note": "[A34G G36C]", "self-cleavage": 0.276}
{"variant": "ACCGGAUGUGCUUUCCGGUCUGAUGAGUCCGUGAGGACGAUACAG", "note": "[A41U]", "self-cleavage": 0.393}
{"variant": "ACCGGAUGUGCUAUCCGGUCUGAUGAGUCCGUGAGGACGAUACAG", "note": "[U13A A41U]", "self-cleavage": 0.355}
{"variant": "ACCGUAUGUGCUUUCCGGUCUGGUGAGUCCGUGAGGACGAAACAG", "note": "[G5U A23G]", "self-cleavage": 0.287}
